Measurements as given in patent publication US20240376193A1 (BIOSCEPTRE AUST, published 2024).

How the values were obtained:
E200 peptide [1] = target: T1, E200 peptide; assay: binding kinetics on E200 peptide; method not stated
T1 construct: Antigen derived from dysfunctional P2X7 receptor
T1 peptide: GHNYTTRNILPGLNITC

E200 peptide [2] = target: T1, E200 peptide; assay: binding kinetics on E200 peptide; method not stated; column 'affinity (nM) (E200)'

B1: BIL03 VH only (other)
VH: EVQLLESGGGLVQPGGSLRLSCAASGFTFRNHDMGWVRQAPGKGLEWVSAISGSGGSTYYANSVKGRFTISRDNSKNTLYLQMNSLRAEDTAVYYCAEPKPMDTEFDYRSPGTLVTVSS
notes: Human single-domain VH tested without a light chain; also called BIL03 heavy chain; single domain heavy chain protein BIL03
Kd (E200 peptide [1]): 127 nM
Kd (E200 peptide [2]): 127 nM

B2: BIL03-Germline B1 (other)
VH: EVQLLESGGGLVQPGGSLRLSCAASGFTFRNHDMGWVRQAPGKGLEWVSAISGSGGSTYYANSVKGRFTISRDNSKNTLYLQMNSLRAEDTAVYYCAEPKPMDTEFDYRSPGTLVTVSS
VL: DIQMTQSPSSLSASVGDRVTITCRASQSISSYLNWYQQKPGKAPKLLIYAASSLQSGVPSRFSGSGSGTDFTLTISSLQPEDFATYYCQQFDYMPLTFGQGTKVEIKR
notes: also called G B1; GB1
Kd (E200 peptide [1]): 82.7 nM
Kd (E200 peptide [2]): 83 nM

B3: BIL03-WT B1 (scFv format) (scFv, V domains shown)
VH: EVQLLESGGGLVQPGGSLRLSCAASGFTFRNHDMGWVRQAPGKGLEWVSAISGSGGSTYYANSVKGRFTISRDNSKNTLYLQMNSLRAEDTAVYYCAEPKPMDTEFDYRSPGTLVTVSS
VL: DIQMTQSPSSLSASVGDRVTITCRASQYIYDYLNWYQQKPGKAPKLLIYAASYLQSGVPSRFSGSGSGTDFTLTISSLQPEDFATYYCQQYHHPSTFGQGTKVEIKR
notes: Tested in scFv format, so VH and VL sit in one polypeptide
Kd (E200 peptide [1]): 24.2 nM
Kd (E200 peptide [2]): 24 nM
